Results taken from patent publication US20150342993A1, “COMPOSITIONS AND METHODS FOR IMMUNOTHERAPY” (MEMORIAL SLOAN-KETTERING CANCER CENTER, published 2015).

Target: prostate-specific membrane antigen (Homo sapiens (Human), UniProt Q04609)
Assay: cell-based or functional assay

- long-term T cell proliferation (absolute T cell counts over 31 days, no exogenous cytokine): 58 fold expansion
B1: P28BB (CAR)
chain: EVQLQQSGPELVKPGTSVRISCKTSGYTFTEYTIHWVKQSHGKSLEWIGNINPNNGGTTYNQKFEDKATLTVDKSSSTAYMELRSLTSEDSAVYYCAAGWNFDYWGQGTTVTVSSGGGGSGGGGSGGGGSDIVMTQSHKFMSTSVGDRVSIICKASQDVGTAVDWYQQKPGQSPKLLIYWASTRHTGVPDRFTGSGSGTDFTLTITNVQSEDLADYFCQQYNSYPLTFGAGTMLDLKRAAAIEVMYPPPYLDNEKSNGTIIHVKGKHLCPSPLFPGPSKPFWVLVVVGGVLACYSLLVTVAFIIFWVRSKRSRLLHSDYMNMTPRRPGPTRKHYQPYAPPRDFAAYRSRFSVVKRGRKKLLYIFKQPFMRPVQTTQEEDGCSCRFPEEEEGGCE
